Target: abnormal human PrP (disease associated PrP, including PrPSc) from vCJD brain homogenate, blood or ur (human, UniProt P04156 23-230)

B1: ICSM18 anti-PrP antibody (D-Gen Ltd, product code 0130-01810), biotinylated (antibody, V domains shown)
VH: EVQLQQSGPELVKPGSSVKISCKASRNTFTDYNLDWVKQSHGKTLEWIGNVYPNNGVTGYNQKFRGKATLTVDKSSSTAYMELHSLTSEDSAVYYCALYYYDVSYWGQGTLVTVSA
VL: QIVLTQSPAIMSASPGEKVTMTCSASSSVSYMHWYQQKSGTSPKRWIYDTSKLASGVPARFSGSGSGTSYSLTISSMEAEDAATYFCHQWRSNPYTFGGGTKLEIKR
For B1, which “ratio relative to cut off” value is on record?
Its value is 1.17.

— US20160320413A1 (D GEN, published 2016)
